Assay in all cases: immunostaining of cells or tissue; cell-surface binding assay: HEK293T cells expressing WT or mutant HA-tagged Slitrks incubated with 10 μg/ml control IgC or Ig-PTPδ; immunofluorescence imaging of Ig-fusion proteins and HA; percentage of cells exhibiting binding
Assay [1] addresses HA-tagged Slitrk1[T418S] (human) (UniProt Q96PX8).
For assay [2], the target named is HA-tagged Slitrk2[S549F] (human) (UniProt Q9H156).
The target in assay [3] is HA-tagged full-length Slitrk2 wild type (human) (UniProt Q9H156).
Assay [4] deals with HA-tagged Slitrk2[R32L] (human) (UniProt Q9H156).
In assay [5] the target is HA-tagged Slitrk4[I578V] (human) (UniProt Q8IW52).
Assay [6] addresses HA-tagged Slitrk1[N400I] (human) (UniProt Q96PX8).
The target in assay [7] is HA-tagged full-length Slitrk1 wild type (human) (UniProt Q96PX8).
Assay [8] deals with HA-tagged Slitrk2[S601P] (human) (UniProt Q9H156).
The target in assay [9] is HA-tagged Slitrk2[V89M] (human) (UniProt Q9H156).
The target of assay [10] is HA-tagged Slitrk1[R584K] (human) (UniProt Q96PX8).
Assay [11] addresses HA-tagged Slitrk4[V206I] (human) (UniProt Q8IW52).
Assay [12] addresses HA-tagged full-length Slitrk4 wild type (human) (UniProt Q8IW52).
The target of assay [13] is HA-tagged Slitrk1[S593G] (human) (UniProt Q96PX8).
Assay [14] concerns the target HA-tagged Slitrk2[L626F] (human) (UniProt Q9H156).

With “recombinant Ig-fusion protein of PTPδ (IgC-PTPδ) (from UniProt P23468 21-1912) (Fc fusion)”, the percentage of cells exhibiting the binding of Ig-PTPδ in [1] is 41%; in [2] it was 68.8%; in assay [3] it was 71%; in [4], 82%; in assay [5], 22.2%; in [6], 32%. Besides, the percentage of cells exhibiting the binding of Ig-PTPδ stood at 66.7% in assay [7]; 80% in assay [8]; 81% in [9]; 62% in [10]; 24% in assay [11]; 81% in [12]. In addition, the results for the percentage of cells exhibiting the binding of Ig-PTPδ in assay [13] and in assay [14] were 68.7% and 76%, respectively.

Source of the values: paper PMC5071332.
